Experimental data published in article PMC5531264.
Where two headings read alike, the source gives them in different places.

Key:
Assay in all cases: fluorescence anisotropy
SAMHD1 wild-type [1] = molecular target: T1, SAMHD1 wild-type (human, UniProt Q9Y3Z3 1-626)
[2] = molecular target: T2, SAMHD1 C-terminal peptide (human, UniProt Q9Y3Z3 583-626)
T2 chain: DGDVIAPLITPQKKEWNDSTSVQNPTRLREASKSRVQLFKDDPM

SAMHD1 wild-type [3] = molecular target: T1, SAMHD1 wild-type; remark: listed apart in the source
SAMHD1 RR = SAMHD1 RR (human, UniProt Q9Y3Z3 1-626, R371E;R372E)
SAMHD1 RKRR = SAMHD1 RKRR (human, UniProt Q9Y3Z3 1-626, R333E;K336E;R371E;R372E)
SAMHD1 RK = SAMHD1 RK (human, UniProt Q9Y3Z3 1-626, R333E;K336E)

B1: FAM-dT60 (ssDNA)
DNA: TTTTTTTTTTTTTTTTTTTTTTTTTTTTTTTTTTTTTTTTTTTTTTTTTTTTTTTTTTTT
- apparent K (half saturation) (SAMHD1 wild-type [1]): 700 ± 100 nM
- Kd [2]: 54 ± 5 µM
- apparent K (half saturation) (SAMHD1 wild-type [3]): 500 ± 100 nM
- apparent K (half saturation) (SAMHD1 RR): 15 ± 1 µM
- apparent K (half saturation) (SAMHD1 RKRR): 30 ± 2 µM
- apparent K (half saturation) (SAMHD1 RK): 7.6 ± 0.4 µM
